This is an account of results in US6950754.

In experiment [1] the target is 6D. Kind of experiment: size exclusion chromatography, self-association.
The target of experiment [2] is 6B. Kind of experiment: size exclusion chromatography, self-association. (Size exclusion chromatography separates by hydrodynamic size, large species first.)
Experiment [3] concerns the target pda8d. In words: sedimentation equilibrium, monomer-dimer-tetramer model; monomer-to-dimer self-association.
Experiment [4] concerns the target pda8d. Kind of experiment: sedimentation equilibrium, monomer-dimer-tetramer model; dimer-to-tetramer self-association.
Experiment [5] concerns the target 6F. In words: size exclusion chromatography, self-association.
The target in experiment [6] is 6E. In words: size exclusion chromatography, self-association.
Experiment [7] addresses 6A. Kind of experiment: size exclusion chromatography, self-association.
Experiment [8] has as its target 6C. Kind of experiment: size exclusion chromatography, self-association.

A word on the Kd: it is a measure of binding affinity in units of concentration. High values mean weaker binding, low ones tighter binding.

Regarding RMRELEEKVRRLLRKNEDLEREVKRLKELVGER (modifications not checked) [6D], the oligomerization state (N) in experiment [1] came to 2. Take RMEKLEQKVKELLRKNERLEEEVERLKQLVGER (modifications not checked) [6B]: the oligomerization state (N) in experiment [2] was found to be 2.

Turning to KPYTARIKGRTFSNEKELRDFLETFTGR (modifications not checked) [pda8d], the Kd in experiment [3] was 500 to 1500 µM; in experiment [4], more than 4000 µM. Molecule RMAALEAKVAALLAKNAALEAEVAALKALVGER (modifications not checked) [6F] showed an oligomerization state (N) in experiment [5] of 4. In experiment [6], RMNTLERKVAKLLSKNANLEHEVNTLKQLVGER (modifications not checked) [6E] returned an oligomerization state (N) of 2.

RMEKLEDKVRELLRKNRRLEEEVRRLKELVGER (modifications not checked) [6A] had an oligomerization state (N) in experiment [7] of 2.

Turning to RMARLEAKVAALLAKNRRLEREVARLKALVGER (modifications not checked) [6C], the oligomerization state (N) in experiment [8] worked out at 2.
